Laboratory results as given in publication PMC6590835, “A unified mechanism for LLPS of ALS/FTLD-causing FUS as well as its modulation by ATP and oligonucleic acids”.

Assays:
[1] = target: FUS U-CTD (RGG2-ZnF-RGG3, ZnF unfolded) (UniProt P35637 371-526); assay: NMR HSQC titration (CSD); no Zn; 1:10; Arg/Lys residues; 20 uM protein, 5 mM sodium phosphate pH 6.0, 1 mM MgCl2 (ZnCl2 added for full-length FUS and F-CTD), 25 C; conditions: protein: recombinant, tags: none
[2] = target: T1, FUS F-CTD (RGG2-ZnF-RGG3, ZnF folded) (UniProt P35637 371-526); assay: NMR HSQC titration (line broadening); Zn2+; all peaks lost at 1:1; 20 uM protein, 5 mM sodium phosphate pH 6.0, 1 mM MgCl2 (ZnCl2 added for full-length FUS and F-CTD), 25 C; conditions: protein: recombinant; tags: none; G4 (by CD in the phosphate buffer)
FUS NTD (PLD+RGG1) [3] = target: T2, FUS NTD (PLD+RGG1) (UniProt P35637 1-267); assay: NMR HSQC titration; 1 mM MgCl2; saturated at 1:2; RGG1 residues; 20 uM protein, 5 mM sodium phosphate pH 6.0, 1 mM MgCl2 (ZnCl2 added for full-length FUS and F-CTD), 25 C; conditions: protein: recombinant; tags: none; G4 (by CD in the phosphate buffer)
FUS full-length [4] = target: T3, FUS full-length (UniProt P35637 1-526); assay: NMR HSQC competition (displaces ATP); 3 mM ATP; 0.3 mM TssDNA; 20 uM protein, 5 mM sodium phosphate pH 6.0, 1 mM MgCl2 (ZnCl2 added for full-length FUS and F-CTD), 25 C; conditions: protein: recombinant; tags: none (His-tag removed by stop codon); G4 (by CD in the phosphate buffer)
[5] = target: T1, FUS F-CTD (RGG2-ZnF-RGG3, ZnF folded); assay: NMR HSQC titration (line broadening); Zn2+; same pattern as TssDNA; 20 uM protein, 5 mM sodium phosphate pH 6.0, 1 mM MgCl2 (ZnCl2 added for full-length FUS and F-CTD), 25 C; conditions: protein: recombinant; tags: none; unstructured (CD)
FUS full-length [6] = target: T3, FUS full-length; assay: NMR HSQC titration (line broadening); Zn2+; highly similar to TssDNA; 20 uM protein, 5 mM sodium phosphate pH 6.0, 1 mM MgCl2 (ZnCl2 added for full-length FUS and F-CTD), 25 C; conditions: protein: recombinant; tags: none (His-tag removed by stop codon); unstructured (CD)
FUS NTD (PLD+RGG1) [7] = target: T2, FUS NTD (PLD+RGG1); assay: NMR HSQC titration; 1 mM MgCl2; same residues as TssDNA; 20 uM protein, 5 mM sodium phosphate pH 6.0, 1 mM MgCl2 (ZnCl2 added for full-length FUS and F-CTD), 25 C; conditions: protein: recombinant; tags: none; unstructured (CD)

Measured: binding result

T2 sequence (P35637 1-267): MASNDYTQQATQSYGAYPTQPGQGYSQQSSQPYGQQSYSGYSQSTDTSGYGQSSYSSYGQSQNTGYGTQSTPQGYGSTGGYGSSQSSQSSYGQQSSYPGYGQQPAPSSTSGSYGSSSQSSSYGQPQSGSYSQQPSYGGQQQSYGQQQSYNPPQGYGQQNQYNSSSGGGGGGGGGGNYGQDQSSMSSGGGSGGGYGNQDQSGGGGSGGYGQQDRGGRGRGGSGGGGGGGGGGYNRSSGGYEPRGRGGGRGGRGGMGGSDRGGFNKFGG
T3 sequence (P35637 whole entry): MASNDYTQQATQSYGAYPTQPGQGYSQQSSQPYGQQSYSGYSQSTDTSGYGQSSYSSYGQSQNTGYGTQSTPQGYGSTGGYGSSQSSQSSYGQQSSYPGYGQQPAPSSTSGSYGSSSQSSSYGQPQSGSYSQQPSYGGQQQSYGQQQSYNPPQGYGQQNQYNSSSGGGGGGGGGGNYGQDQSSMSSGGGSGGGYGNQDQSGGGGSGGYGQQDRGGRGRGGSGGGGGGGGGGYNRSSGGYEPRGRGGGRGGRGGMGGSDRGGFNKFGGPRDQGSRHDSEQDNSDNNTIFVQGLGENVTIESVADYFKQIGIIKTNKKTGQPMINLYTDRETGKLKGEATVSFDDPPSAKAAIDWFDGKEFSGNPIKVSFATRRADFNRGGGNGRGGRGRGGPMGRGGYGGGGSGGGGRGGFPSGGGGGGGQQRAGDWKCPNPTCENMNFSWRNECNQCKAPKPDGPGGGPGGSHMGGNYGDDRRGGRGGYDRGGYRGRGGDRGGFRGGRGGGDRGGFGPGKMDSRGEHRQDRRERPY
Chain of FUS U-CTD (RGG2-ZnF-RGG3, ZnF unfolded) (P35637 371-526): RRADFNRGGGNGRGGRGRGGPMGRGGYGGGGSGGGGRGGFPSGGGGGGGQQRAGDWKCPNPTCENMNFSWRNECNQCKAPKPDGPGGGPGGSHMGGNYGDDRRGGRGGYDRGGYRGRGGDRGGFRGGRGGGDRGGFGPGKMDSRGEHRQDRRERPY
T1 sequence (P35637 371-526): as above

TTAGGGTTAGGGTTAGGGTTAGGG (structured_DNA) [TssDNA (telomeric ssDNA, 24-mer)]
binds: [1]; G4 (by CD in the phosphate buffer) | [2] | FUS NTD (PLD+RGG1) [3] | FUS full-length [4]

TTTTTTTTTTTTTTTTTTTTTTTT (ssDNA) [T24]
binds: [1]; unstructured (CD) | [5] | FUS full-length [6] | FUS NTD (PLD+RGG1) [7]
